The text below walks through data of patent US20180355059A1 (PHARMAEXPLORER, published 2018).

Test [1] deals with T1, recombinant human PCSK9 protein, His-tagged (Immunogen A, hPCSK9-His) (human, UniProt Q8NBP7 31-692, limits assumed, biotin-labelled in the ELISA and blocking assays (Biotin labeling kit)).
T1 construct: also called human PCSK9-His; recombinant hPCSK9-His; not shown: His tag
The experiment in a line: ELISA, biotin-hPCSK9-His on streptavidin plate; antibody 0.67 nM. For orientation: In an ELISA, binding on a coated surface is turned into a signal by an enzyme label.

Test [2] addresses T1, recombinant human PCSK9 protein, …. Briefly: ELISA, biotin-hPCSK9-His on streptavidin plate; antibody 6.67 nM.
Protocol: (§1) The next day, the plates were washed twice with wash buffer [0.01% (v/v) Tween 20], then blocked with blocking buffer [0.01% (v/v) 0.1% BSA (w/w) Tween 20] at room temperature for 2 hours. […] Unbound PCSK9 proteins were removed by washing the plate three times with wash buffer [0.01% (v/v) Tween 20]. […] The plates were washed twice with wash buffer [0.01% (v/v) Tween 20], and 200 uL HRP-conjugated secondary antibody (Sigma) was added to each well and incubated for 2 hours at 37° C. After the plates were washed three times with wash buffer, 100 ul TMB substrate were added to each well and incubated for 30 minutes at room temperature. 100 ul stop solution (0.1N HCl) were added to each well to stop the reaction.
The target in test [3] is T2, recombinant cyno monkey PCSK9 protein (cyno monkey, UniProt A8T666 31-692 (rhesus entry), limits assumed, biotin-labelled in the ELISA (Biotin labeling kit)).
T2 construct: also called cyno PCSK9; Cyno Monkey PCSK9-His
T2 sequence (A8T666 31-692 limits assumed): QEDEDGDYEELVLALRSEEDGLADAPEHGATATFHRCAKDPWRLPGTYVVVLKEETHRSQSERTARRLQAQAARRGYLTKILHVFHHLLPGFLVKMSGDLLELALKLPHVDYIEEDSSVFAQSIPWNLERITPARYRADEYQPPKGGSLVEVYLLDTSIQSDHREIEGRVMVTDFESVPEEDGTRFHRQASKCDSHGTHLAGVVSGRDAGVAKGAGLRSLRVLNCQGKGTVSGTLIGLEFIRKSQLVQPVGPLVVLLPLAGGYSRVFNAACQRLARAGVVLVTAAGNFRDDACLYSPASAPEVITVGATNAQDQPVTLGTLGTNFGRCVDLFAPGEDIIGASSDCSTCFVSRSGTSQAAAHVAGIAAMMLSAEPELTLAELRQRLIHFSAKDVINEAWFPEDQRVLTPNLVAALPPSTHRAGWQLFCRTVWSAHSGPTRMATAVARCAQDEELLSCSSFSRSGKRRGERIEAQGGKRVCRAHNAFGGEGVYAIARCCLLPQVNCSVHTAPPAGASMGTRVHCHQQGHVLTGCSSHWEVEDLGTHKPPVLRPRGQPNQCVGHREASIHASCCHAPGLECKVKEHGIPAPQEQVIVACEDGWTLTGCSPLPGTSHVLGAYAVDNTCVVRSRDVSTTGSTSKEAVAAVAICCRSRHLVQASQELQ
The experiment in a line: ELISA, biotin-cyno PCSK9 on streptavidin plate; antibody 0.67 nM.
Protocol: as §1

The target of test [4] is T2, recombinant cyno monkey PCSK9 protein. Briefly: ELISA, biotin-cyno PCSK9 on streptavidin plate; antibody 6.67 nM.
Protocol: as §1
The target of test [5] is T1, recombinant human PCSK9 protein, …. Briefly: ELISA, biotin-hPCSK9-His on streptavidin plate; antibody 0.067 nM.
Protocol: as §1
Test [6] has the same target. Briefly: ELISA, biotin-hPCSK9-His on streptavidin plate; antibody 66.67 nM.
Protocol: as §1
The target in test [7] is T2, recombinant cyno monkey PCSK9 protein. Briefly: ELISA, biotin-cyno PCSK9 on streptavidin plate; antibody 0.067 nM.
Protocol: as §1
The target is the same in test [8]. The experiment in a line: ELISA, biotin-cyno PCSK9 on streptavidin plate; antibody 66.67 nM.
Protocol: as §1
Test [9] addresses T1, recombinant human PCSK9 protein, …. The experiment in a line: ELISA, biotin-hPCSK9-His on streptavidin plate; antibody 0.0067 nM.
Protocol: as §1
The target of test [10] is T2, recombinant cyno monkey PCSK9 protein. Briefly: ELISA, biotin-cyno PCSK9 on streptavidin plate; antibody 0.0067 nM.
Protocol: as §1
For test [11], the target named is T1, recombinant human PCSK9 protein, …. The experiment in a line: ELISA, biotin-hPCSK9-His on streptavidin plate; antibody 0.00067 nM.
The target in test [12] is T2, recombinant cyno monkey PCSK9 protein. The experiment in a line: ELISA, biotin-cyno PCSK9 on streptavidin plate; antibody 0.00067 nM.
Protocol: as §1
The target in test [13] is T1, recombinant human PCSK9 protein, …. The experiment in a line: ELISA, biotin-hPCSK9-His on streptavidin plate; antibody 0.000067 nM.
Protocol: as §1
The target in test [14] is T2, recombinant cyno monkey PCSK9 protein. The experiment in a line: ELISA, biotin-cyno PCSK9 on streptavidin plate; antibody 0.000067 nM.
Protocol: as §1
For test [15], the target named is T1, recombinant human PCSK9 protein, …. The experiment in a line: ELISA, biotin-hPCSK9-His on streptavidin plate; antibody 0 nM (blank).
Protocol: as §1
In test [16] the target is T2, recombinant cyno monkey PCSK9 protein. Briefly: ELISA, biotin-cyno PCSK9 on streptavidin plate; antibody 0 nM (blank).
Protocol: as §1
The target of test [17] is T1, recombinant human PCSK9 protein, …. The experiment in a line: blocking ELISA, biotin-hPCSK9-His on coated LDLR ECD-His; antibody 8 nM.
Protocol: (§2) Purified LDLR^ECD-His was diluted with PBS to a final concentration of 1.0 ug/ml, and 100 uL of diluted LDLR^ECD-His were added to each well of 96-well plate that was then sealed with plastic film and incubated at 4° C. overnight. The plate was washed twice with wash buffer [PBS+0.01% (v/v) Tween 20] and incubated with blocking buffer [PBS+0.01% (v/v) BSA+1% Tween20 (w/w)] at room temperature for 2 hours. […] The plate was washed three times with wash buffer [0.01% (v/v) Tween 20]. 100 uL HRP-conjugated streptavidin (Sigma) were then added to each well and incubated at 37° C. for 1 hour. The plate was then washed three times with wash buffer, and 100 uL TMB substrate were added to each well. After 15 minutes of incubation at room temperature, the reaction was stopped by adding 50 uL stop solution (0.1N HCl).
The target is the same in test [18]. Briefly: blocking ELISA, biotin-hPCSK9-His on coated LDLR ECD-His; antibody 40 nM.
Protocol: as §2
For test [19] the target is unchanged. Briefly: blocking ELISA, biotin-hPCSK9-His on coated LDLR ECD-His; antibody 1.6 nM.
Protocol: as §2
The target is the same in test [20]. The experiment in a line: blocking ELISA, biotin-hPCSK9-His on coated LDLR ECD-His; antibody 200 nM.
Test [21] shares this target. Briefly: blocking ELISA, biotin-hPCSK9-His on coated LDLR ECD-His; antibody 0.01 nM.
Protocol: as §2
Test [22] has the same target. The experiment in a line: blocking ELISA, biotin-hPCSK9-His on coated LDLR ECD-His; antibody 0.06 nM.
Protocol: as §2
The target is the same in test [23]. Briefly: blocking ELISA, biotin-hPCSK9-His on coated LDLR ECD-His; antibody 0.32 nM.

B1: 152G2F7, chimeric anti-PCSK9 mAb purified from hybridoma (antibody, V domains shown)
VH: EVQLVESGGGLVQPGGSLRLSCAASEFTFGGYWMTWVRQAPGKGLEWVANIKQDGSEKYYVDSVKGRFTISRDNAKNSLYLHMNSLRAEDTAVYYCARDRTTMIRGVSLYYYYYGMDVWGQGTAVTVSS
VL: EIVLTQSPATLSLSPGERATLSCRASQSVSSYLAWYQQKPGQAPRLLIYDASNRATGIPARFSGSGSGTDFTLTISSLEPEDFAVYYCQQRSNWPLTFGGGTKVEIK
notes: From Harbour H2L2 mice: human variable regions, rat constant regions
Turning to B1, the OD450 nm in [1] is 2.42 OD450 nm; in test [2], 2.91 OD450 nm; in [3] it was 1.25 OD450 nm; in [4] it was 2.67 OD450 nm; in test [5], 0.6 OD450 nm; in test [6] it was 2.91 OD450 nm. The OD450 nm in [7] came out at 0.35 OD450 nm; in test [8], 2.93 OD450 nm; in [9] it was 0.25 OD450 nm; in test [10], 0.2 OD450 nm; in [11], 0.21 OD450 nm; in test [12], 0.21 OD450 nm. The OD450 nm turned out to be 0.18 OD450 nm in test [13], 0.27 OD450 nm in [14], 0.17 OD450 nm in test [15] and 0.33 OD450 nm in [16]. Moreover, the “OD450 nm (PCSK9 bound to LDLR)” value in test [17] was determined as 0.94 OD450 nm; in test [18], 0.74 OD450 nm; in test [19], 1.2 OD450 nm; in [20], 0.7 OD450 nm; in test [21], 1.26 OD450 nm; in [22] it was 1.2 OD450 nm. Also, in test [23], the “OD450 nm (PCSK9 bound to LDLR)” value stood at 1.17 OD450 nm.
